± gives the uncertainty stated by the source.
Assay: self-splicing fitness, log relative to wild type (ln ratio); higher = more splicing; Tetrahymena group I intron in knt gene, E. coli kanamycin selection, DiMSum; sequences stand for … in CUCUCU…GGAGGGAAAAGUUAUCAGGCAUGCACCUGGUAGCUAGUCUUUAAACCAAUAGAUUGCAUCGGUUUAAAAGGCAAGACCGUCAAAUUGCGGGAAAGGGGUCAACAGCCGUUCAGUACCAAGUCUCAGGGGAAACUUUGAGAUGGCCUUGCAAAGGGUAUGGUAAUAAGCUGACGGACAUGGUCCUAACCACGCAGCCAAGUCCUAAGUCAACAGAUCUUCUGUUGAUAUGGAUGCAGUUCACAGACUAAAUGUCGGUCGGGGAAGAUGUAUUCUUCUCAUAAGAUAUAGUCGGACCUCUCCUUAAUGGGAGCUAGCGGAUGAAGUGAUGCAACACUGGAGCCGCUGGGAACUAAUUUGUAUGCGAAAGUAUAUUGAUUAGUUUUGGAGUACUCGUGGUCG
Method in brief: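 Colonies from six replicate transformations of E. coli BL21(DE3) were pooled and amplicon-sequenced on an Illumina HiSeq 2500. The library placed an intron with all eight P1ex-region nucleotides randomised inside the knt kanamycin-resistance gene on pET-22b(+), and cells grew overnight at 37°C or 30°C on LB agar with or without 25 μg/mL kanamycin (plus 100 μg/mL carbenicillin, 50 μM IPTG, 0.2% rhamnose). Fitness is the DiMSum error-weighted combination of wild-type-normalised replicate fold changes, kanamycin versus none.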

Sequence	self-splicing fitness (ln) (30 °C)	self-splicing fitness (ln) (37 °C)
UAGCAGCAAUAUUACGUGUA	-1.17 ± 0.062	-0.62 ± 0.077
CGGCAGCAAUAUUACGACGG	-0.297 ± 0.088	0.852 ± 0.15
UUCGAGCAAUAUUACGGUUG	-3.78 ± 0.19	-2.47 ± 0.16
UUCUAGCAAUAUUACGCGUA	-1.15 ± 0.25	-0.575 ± 0.21
CCCGAGCAAUAUUACGCGGU	-3.37 ± 0.16	-2.7 ± 0.17
UUCAAGCAAUAUUACGACGC	-1.27 ± 0.19	-1.14 ± 0.26
CUACAGCAAUAUUACGCUGC	-2.88 ± 0.22	-1.77 ± 0.35
ACUAAGCAAUAUUACGUGUC	-3.48 ± 0.14	-3.57 ± 0.21
CGCUAGCAAUAUUACGAAAU	-3.5 ± 0.22	-2.01 ± 0.2
GGACAGCAAUAUUACGAGUC	-4.31 ± 0.2	-2.75 ± 0.15
CCCAAGCAAUAUUACGCUAU	-3.85 ± 0.29	-3.13 ± 0.31
UCACAGCAAUAUUACGUGGU	-4.05 ± 0.19	-3.15 ± 0.18
ACGCAGCAAUAUUACGCCCA	-0.672 ± 0.096	-0.153 ± 0.12
CAGAAGCAAUAUUACGACAU	-3.128 ± 0.02	-1.87 ± 0.034
AUGUAGCAAUAUUACGUGAA	-2.3 ± 0.12	-1.22 ± 0.14
GCUUAGCAAUAUUACGCACC	-0.796 ± 0.13	0.115 ± 0.16
ACUUAGCAAUAUUACGUUCU	-1.28 ± 0.064	-0.195 ± 0.087
GGCCAGCAAUAUUACGGCAG	-0.833 ± 0.058	-0.191 ± 0.1
CAGCAGCAAUAUUACGGAUC	-3.6 ± 0.36	-1.37 ± 0.26
GUGCAGCAAUAUUACGAGCG	-0.973 ± 0.072	-0.518 ± 0.083
CGAAAGCAAUAUUACGCCCA	-0.283 ± 0.12	0.0973 ± 0.15
CCACAGCAAUAUUACGAAGC	-3.85 ± 0.2	-2.3 ± 0.15
CUAAAGCAAUAUUACGAGUA	-3.16 ± 0.3	-2.73 ± 0.36
GUCUAGCAAUAUUACGUAGA	-1.69 ± 0.14	-0.93 ± 0.2

Sequence	self-splicing fitness (ln) (30 °C)	self-splicing fitness (ln) (37 °C)
GAUCAGCAAUAUUACGAAUA	-0.747 ± 0.11	-0.471 ± 0.15
AUUUAGCAAUAUUACGAAGU	-1.91 ± 0.23	-1.24 ± 0.18
AGCAAGCAAUAUUACGGGAA	-2.65 ± 0.14	-1.03 ± 0.1
AAUAAGCAAUAUUACGACUG	-0.872 ± 0.088	-1.18 ± 0.11
UUCGAGCAAUAUUACGCUCC	-3.27 ± 0.41	
AACGAGCAAUAUUACGCCCU	-1.66 ± 0.12	-0.745 ± 0.17
UGUGAGCAAUAUUACGGGGG	-3.23 ± 0.26	-2.35 ± 0.23
CCGGAGCAAUAUUACGGUAA	-2.12 ± 0.25	-3.21 ± 0.4
GAUGAGCAAUAUUACGCGAA	-3.16 ± 0.16	-2.04 ± 0.17
GGUCAGCAAUAUUACGGCUG	-0.728 ± 0.078	-0.439 ± 0.091
ACGAAGCAAUAUUACGUUGG	-3.56 ± 0.16	-2.38 ± 0.17
GCGGAGCAAUAUUACGCUUG	-3.14 ± 0.24	-1.06 ± 0.2
UCCGAGCAAUAUUACGAUGC	-1.93 ± 0.19	
CAGCAGCAAUAUUACGCUGU	-2.84 ± 0.22	-2.36 ± 0.24
AUAUAGCAAUAUUACGGACG	-2.09 ± 0.16	-1.07 ± 0.19
AGUAAGCAAUAUUACGAUUC	-1.31 ± 0.14	-0.96 ± 0.22
CUGCAGCAAUAUUACGAUCA	-3.57 ± 0.29	-2.5 ± 0.2
GUAAAGCAAUAUUACGGUUA	-0.077 ± 0.058	0.569 ± 0.086
GGCUAGCAAUAUUACGACGC	-0.655 ± 0.41	0.803 ± 0.43
CAUUAGCAAUAUUACGAAAA	-2.21 ± 0.46	-1.46 ± 0.45
UAACAGCAAUAUUACGCAAU	-2.89 ± 0.15	-0.816 ± 0.15
CACAAGCAAUAUUACGCUGU	-3.78 ± 0.17	-2.57 ± 0.18
GUAGAGCAAUAUUACGUUCA	-0.476 ± 0.1	-0.627 ± 0.11
CCAGAGCAAUAUUACGCCAG	-3.07 ± 0.25	

Reference: the supplement of paper PMC7877785
